Our source for the Mean relative activity values is patent US20220259593A1, “CONTROL OF MAMMALIAN GENE DOSAGE USING CRISPR” (The Regents of the University of California, priority 2019, published 2022).

Substitutions are numbered along the chain they refer to.

The series deals with K562 CRISPRi cells. Put plainly: Constant region variant library pooled growth screen, K562. To be noted: sgRNA constant region variants. In kind it is cell-based, human. In outline: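 Relative activity expresses each targeting sequence:constant region pair's phenotype over that of the unmodified constant region. Pooled growth screen ran in K562 CRISPRi cells in duplicate spinner-flask replicates, with puromycin selection and 4–8 days' growth at >2000× coverage; library paired variants with 36 targeting sequences.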

The mark [1] stands for this setting: relative to the original, un-modified constant region cr995 (= 1).
[2] abbreviates: activity relative to the original, un-modified constant region cr995.

B1: cr980 (nucleic acid)
guide: GTTTAAGAGCTAAGCTGGAAACAGCATAGCAAGTTTAAATAAGGCTAGTCCGCTATCAACTTGAAAAAGTGGCACCGAGTCGGTGCT
modifications: listed as DNA, chemistry not fully specified
Under setting [1], B1 yielded a Mean relative activity of 1.014.

B2: cr139 (nucleic acid)
guide: B1 guide with C53T, C75A, G83T
modifications: listed as DNA, chemistry not fully specified
Under setting [1], B2 showed a Mean relative activity of 1.006.

B3: cr632 (nucleic acid)
guide: B1 guide with C53T, A64C, A66G
modifications: listed as DNA, chemistry not fully specified
The molecule B3 yielded a Mean relative activity under setting [1] of 1.008.

B4: cr365 (nucleic acid)
guide: B1 guide with C53T, T54A
modifications: listed as DNA, chemistry not fully specified
Under setting [1], B4 displayed a Mean relative activity of 1.007.

B5: cr901 (nucleic acid)
guide: B1 guide with C53T, A66G
modifications: listed as DNA, chemistry not fully specified
Under setting [1], B5 yielded a Mean relative activity of 1.003.

B6: cr377 (nucleic acid)
guide: B1 guide with C53T, T56G
modifications: listed as DNA, chemistry not fully specified
Take B6: the Mean relative activity under setting [1] was found to be 1.012.

B7: cr642 (nucleic acid)
guide: B1 guide with A32T, C53T
modifications: listed as DNA, chemistry not fully specified
Regarding B7, under setting [1], the Mean relative activity stood at 1.008.

B8: cr968 (nucleic acid)
guide: B1 guide with C53T, C73A, G85T
modifications: listed as DNA, chemistry not fully specified
Consider B8, for which, under setting [1], the Mean relative activity is 1.004.

B9: cr232 (nucleic acid)
guide: B1 guide with T27C, C53T
modifications: listed as DNA, chemistry not fully specified
B9 displayed a Mean relative activity under setting [1] of 1.006.

B10: cr433 (nucleic acid)
guide: B1 guide with C53T, A66T
modifications: listed as DNA, chemistry not fully specified
B10 came in with a Mean relative activity under setting [1] of 1.012.

B11: cr144 (nucleic acid)
guide: B1 guide with C53T, A59T, C60G, T62A, A67T, G69C, T70A
modifications: listed as DNA, chemistry not fully specified
Take B11: the Mean relative activity under setting [1] was found to be 1.007.

B12: cr656 (nucleic acid)
guide: B1 guide with C53T, A74C, T84G
modifications: listed as DNA, chemistry not fully specified
For B12, under setting [1], the Mean relative activity came out at 1.004.

B13: cr936 (nucleic acid)
guide: B1 guide with C53T, G72T, C86A
modifications: listed as DNA, chemistry not fully specified
For B13, the Mean relative activity under setting [2] worked out at 1.072.

B14: cr037 (nucleic acid)
guide: B1 guide with G7T, A8C, C53T
modifications: listed as DNA, chemistry not fully specified
The molecule B14 had a Mean relative activity under setting [1] of 1.01.

B15: cr945 (nucleic acid)
guide: B1 guide with C53T, A66G, G79T
modifications: listed as DNA, chemistry not fully specified
In the case of B15, under setting [1], the Mean relative activity was found to be 1.002.

B16: cr559 (nucleic acid)
guide: B1 guide with C53T, C73T, G85A
modifications: listed as DNA, chemistry not fully specified
B16 showed a Mean relative activity under setting [1] of 1.007.

B17: cr155 (nucleic acid)
guide: B1 guide with C53T, C60T, T62G, A67C, G69A, C75T, G83A
modifications: listed as DNA, chemistry not fully specified
Under setting [1], B17 registered a Mean relative activity of 1.003.

B18: cr428 (nucleic acid)
guide: B1 guide with C53T, A64C, A66T
modifications: listed as DNA, chemistry not fully specified
Under setting [1], B18 gave a Mean relative activity of 1.013.

B19: cr348 (nucleic acid)
guide: B1 guide with A21G, C53T
modifications: listed as DNA, chemistry not fully specified
As to B19, the Mean relative activity under setting [1] stood at 1.008.

B20: cr606 (nucleic acid)
guide: B1 guide with C53T, C60G, G69C, A74C, C75T, G83A, T84G
modifications: listed as DNA, chemistry not fully specified
Molecule B20 registered a Mean relative activity under setting [1] of 1.007.

B21: cr423 (nucleic acid)
guide: B1 guide with C53T, A59G, T70C, C73T, G85A
modifications: listed as DNA, chemistry not fully specified
For B21, under setting [1], the Mean relative activity is 1.012.

B22: cr771 (nucleic acid)
guide: B1 guide with C53T, A65G, G72C, C86G
modifications: listed as DNA, chemistry not fully specified
B22 registered a Mean relative activity under setting [1] of 1.007.

B23: cr672 (nucleic acid)
guide: B1 guide with C53T, C75T
modifications: listed as DNA, chemistry not fully specified
The molecule B23 gave a Mean relative activity under setting [1] of 1.005.

B24: cr393 (nucleic acid)
guide: B1 guide with C53T, A65C, G79A
modifications: listed as DNA, chemistry not fully specified
As to B24, the Mean relative activity under setting [1] stood at 1.004.

B25: cr128 (nucleic acid)
guide: B1 guide with C53T, A59G, T70C, C76A, G82T
modifications: listed as DNA, chemistry not fully specified
Turning to B25, the Mean relative activity under setting [1] was 1.002.

B26: cr510 (nucleic acid)
guide: B1 guide with C53T, A59T, C60G, G69C, T70A
modifications: listed as DNA, chemistry not fully specified
Under setting [1], B26 showed a Mean relative activity of 1.007.

B27: cr715 (nucleic acid)
guide: B1 guide with A31G, C53T
modifications: listed as DNA, chemistry not fully specified
For the molecule B27, the Mean relative activity under setting [1] came out at 1.008.

B28: cr690 (nucleic acid)
guide: B1 guide with T27G, C53T
modifications: listed as DNA, chemistry not fully specified
B28 registered a Mean relative activity under setting [1] of 1.011.

B29: cr333 (nucleic acid)
guide: B1 guide with C53T, C60G, T61G, A68C, G69C
modifications: listed as DNA, chemistry not fully specified
Take B29: the Mean relative activity under setting [2] is reported as 1.072.
